From US5298404

Legend:
[1] = system: HpaI restriction endonuclease (native) (Haemophilus parainfluenzae); assay: cleavage_in_vitro; conditions: 10 mM Tris pH 7.5, 10 mM MgCl2, 100 mM NaCl, 37 C
[2] = system: HpaI restriction endonuclease (recombinant) (Haemophilus parainfluenzae); assay: cleavage_in_vitro; conditions: assay as for native enzyme; Mg2+, 37 C

Question: Which activity [1] does the source give for phage lambda DNA here?
Answer: 250000 units/mg

Question: And the activity [2]?
Answer: 250000 units/mg
